Patent US20240182582A1 (Janssen / Centocor, published 2024)
Numbering of substitutions follows the chain as printed.

Tests used:
[1] = target: T1, BCMA (UniProt Q02223 1-184, limits assumed); assay: cell-based or functional assay
T1 sequence (looked up): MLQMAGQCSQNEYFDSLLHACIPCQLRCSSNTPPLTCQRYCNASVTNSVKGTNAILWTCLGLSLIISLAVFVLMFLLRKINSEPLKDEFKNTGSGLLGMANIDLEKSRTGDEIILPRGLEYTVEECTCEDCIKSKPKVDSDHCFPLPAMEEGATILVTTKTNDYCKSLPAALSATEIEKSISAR

[2] = target: NKp46 on NKL cells / NK cells (human, UniProt O76036 22-304); assay: cell-based or functional assay
[3] = target: GPRC5d (UniProt Q9NZD1 1-345, limits assumed); assay: cell-based or functional assay
[4] = target: T2, N46W3 (NKp46 D1) (UniProt O76036 22-120, limits assumed); assay: binding kinetics, method not named
T2 construct: domain: D1

[5] = target: T3, NKGW1 (human NKG2d80-216 extracellular region with N-term hexahistidine tag) (human, UniProt P26718 80-216); assay: surface plasmon resonance
T3 construct: also called human NKG2d (NKGW1)
T3 sequence: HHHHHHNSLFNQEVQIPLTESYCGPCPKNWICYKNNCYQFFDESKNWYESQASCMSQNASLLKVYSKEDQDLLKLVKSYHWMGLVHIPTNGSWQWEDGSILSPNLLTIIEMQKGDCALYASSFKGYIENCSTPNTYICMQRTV

[6] = target: T4, Cyno NKG2d (NKGW2.001) (cynomolgus monkey, UniProt P61252 80-216, limits assumed); assay: surface plasmon resonance
T4 sequence (looked up): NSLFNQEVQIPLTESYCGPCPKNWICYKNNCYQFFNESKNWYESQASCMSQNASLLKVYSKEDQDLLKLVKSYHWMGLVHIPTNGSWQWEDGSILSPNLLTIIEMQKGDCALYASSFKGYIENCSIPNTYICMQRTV

GPRC5d, sequence (Q9NZD1 whole entry): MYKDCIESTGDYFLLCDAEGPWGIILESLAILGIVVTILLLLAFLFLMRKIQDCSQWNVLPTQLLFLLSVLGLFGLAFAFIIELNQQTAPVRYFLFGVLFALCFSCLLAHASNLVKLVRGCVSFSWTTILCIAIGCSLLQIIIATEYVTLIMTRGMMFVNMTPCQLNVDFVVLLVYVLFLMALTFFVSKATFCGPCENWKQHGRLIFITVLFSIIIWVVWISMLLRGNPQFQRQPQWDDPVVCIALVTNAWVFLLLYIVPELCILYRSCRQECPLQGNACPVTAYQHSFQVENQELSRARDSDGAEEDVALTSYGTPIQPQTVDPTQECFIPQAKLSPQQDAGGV
NKp46 on NKL cells / NK cells, sequence (O76036 22-304): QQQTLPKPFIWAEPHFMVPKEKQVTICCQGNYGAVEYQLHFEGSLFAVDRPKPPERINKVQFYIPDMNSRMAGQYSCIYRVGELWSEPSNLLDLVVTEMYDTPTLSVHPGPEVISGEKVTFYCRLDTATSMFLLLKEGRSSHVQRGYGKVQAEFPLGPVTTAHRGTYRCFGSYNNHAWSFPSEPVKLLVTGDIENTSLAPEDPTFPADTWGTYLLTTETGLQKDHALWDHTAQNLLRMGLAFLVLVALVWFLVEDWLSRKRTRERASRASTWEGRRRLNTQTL
T2 sequence (O76036 22-120 limits assumed): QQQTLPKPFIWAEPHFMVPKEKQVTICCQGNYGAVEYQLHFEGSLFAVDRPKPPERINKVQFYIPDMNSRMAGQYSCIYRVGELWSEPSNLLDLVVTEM

B1: N46BB4 (bispecific antibody, human IgG1, kappa)
heavy: QLQLQESGPGPVRPSETLSLTCTVSGDSIRSSSYYWGWIRQPPGKGLDWIGSIYYTGSTYYNPSLMSRVTISVDTSKNQFSLKLSSVTAADTAVYYCASPGYSSGWSIDYWGQGTLVTVSSASTKGPSVFPLAPSSKSTSGGTAALGCLVKDYFPEPVTVSWNSGALTSGVHTFPAVLQSSGLYSLSSVVTVPSSSLGTQTYICNVNHKPSNTKVDKKVEPKSCDKTHTCPPCPAPELLGGPSVFLFPPKPKDTLMISRTPEVTCVVVDVSHEDPEVKFNWYVDGVEVHNAKTKPREEQYNSTYRVVSVLTVLHQDWLNGKEYKCKVSNKALPAPIEKTISKAKGQPREPQVYVYPPSREEMTKNQVSLTCLVKGFYPSDIAVEWESNGQPENNYKTTPPVLDSDGSFALVSKLTVDKSRWQQGNVFSCSVMHEALHNHYTQKSLSLSPGK
light: DIQLTQSPSFLSASVGDRVTITCRASQGISSYLAWYQQKPGKAPKLLIYVASTLQSGVPSRFSGSGSGTEFTLTISSLQPEDFATYYCQQLNSYPRMTFGGGTKVEIKRTVAAPSVFIFPPSDEQLKSGTASVVCLLNNFYPREAKVQWKVDNALQSGNSQESVTEQDSKDSTYSLSSTLTLSKADYEKHKVYACEVTHQGLSSPVTKSFNRGEC
chain: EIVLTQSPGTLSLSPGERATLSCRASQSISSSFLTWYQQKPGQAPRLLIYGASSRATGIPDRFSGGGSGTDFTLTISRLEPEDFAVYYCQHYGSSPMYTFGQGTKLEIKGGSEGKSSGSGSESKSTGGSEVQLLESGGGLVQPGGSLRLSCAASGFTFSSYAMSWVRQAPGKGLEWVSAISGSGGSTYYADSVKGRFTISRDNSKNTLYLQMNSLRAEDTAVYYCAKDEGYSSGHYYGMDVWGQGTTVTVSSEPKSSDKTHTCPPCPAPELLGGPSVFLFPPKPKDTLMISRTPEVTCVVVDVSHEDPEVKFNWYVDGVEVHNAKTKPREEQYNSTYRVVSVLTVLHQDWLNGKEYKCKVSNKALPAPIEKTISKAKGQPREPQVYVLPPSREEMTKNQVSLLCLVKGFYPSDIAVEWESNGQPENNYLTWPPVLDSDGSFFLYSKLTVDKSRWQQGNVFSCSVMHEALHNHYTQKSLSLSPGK
IC50 for BsAb cytotoxicity, H929/GFP target cells with PBMC effectors [1]: 0.00153 nM

B2: N46BB14 (bispecific antibody, human IgG1, kappa, L234A L235A)
heavy: B1 heavy with L238A, L239A, D269S, V354T, Y355L, T370W, A409F, V411Y, H439R, Y440F
light: B1 light
chain: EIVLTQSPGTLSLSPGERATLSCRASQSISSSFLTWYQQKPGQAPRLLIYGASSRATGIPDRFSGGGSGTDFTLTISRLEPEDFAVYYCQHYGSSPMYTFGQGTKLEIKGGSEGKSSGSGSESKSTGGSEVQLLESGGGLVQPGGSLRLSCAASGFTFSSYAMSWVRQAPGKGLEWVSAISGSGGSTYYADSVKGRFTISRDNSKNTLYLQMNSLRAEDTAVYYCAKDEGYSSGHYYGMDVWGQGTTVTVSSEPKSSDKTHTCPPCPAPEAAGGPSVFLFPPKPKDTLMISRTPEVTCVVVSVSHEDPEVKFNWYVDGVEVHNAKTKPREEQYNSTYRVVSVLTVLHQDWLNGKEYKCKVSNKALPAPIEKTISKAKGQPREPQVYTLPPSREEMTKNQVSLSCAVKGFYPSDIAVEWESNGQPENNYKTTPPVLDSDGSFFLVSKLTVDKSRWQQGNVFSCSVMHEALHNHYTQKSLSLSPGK
EC50 of cytotoxicity (hypoxia study, PBMC on MM1R/GFP cells, 48-hour endpoint) [2]: ~1.19 nM

B3: N46BB10.AFU (bispecific antibody, human IgG1, kappa)
heavy: B1 heavy with V354T, Y355L, T370W, A409F, V411Y, H439R, Y440F
light: B1 light
chain: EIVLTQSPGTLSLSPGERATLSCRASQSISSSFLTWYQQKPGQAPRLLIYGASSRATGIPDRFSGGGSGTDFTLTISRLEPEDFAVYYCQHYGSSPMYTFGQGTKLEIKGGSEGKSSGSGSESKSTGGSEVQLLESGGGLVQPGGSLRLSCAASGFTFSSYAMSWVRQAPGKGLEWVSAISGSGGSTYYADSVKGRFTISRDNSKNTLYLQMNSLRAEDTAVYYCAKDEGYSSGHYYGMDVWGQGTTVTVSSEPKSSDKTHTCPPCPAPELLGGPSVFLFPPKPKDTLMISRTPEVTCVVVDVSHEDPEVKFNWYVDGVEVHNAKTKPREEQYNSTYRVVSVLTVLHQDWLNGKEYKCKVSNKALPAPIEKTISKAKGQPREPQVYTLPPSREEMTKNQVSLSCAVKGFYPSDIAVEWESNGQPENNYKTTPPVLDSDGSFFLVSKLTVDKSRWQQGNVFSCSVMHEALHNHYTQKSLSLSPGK
EC50 of cytotoxicity (hypoxia study, PBMC on MM1R/GFP cells) [2]: 0.006 nM

B4: N46BB10 (bispecific antibody, human IgG1, kappa)
heavy: B1 heavy with V354T, Y355L, T370W, A409F, V411Y, H439R, Y440F
light: B1 light
chain: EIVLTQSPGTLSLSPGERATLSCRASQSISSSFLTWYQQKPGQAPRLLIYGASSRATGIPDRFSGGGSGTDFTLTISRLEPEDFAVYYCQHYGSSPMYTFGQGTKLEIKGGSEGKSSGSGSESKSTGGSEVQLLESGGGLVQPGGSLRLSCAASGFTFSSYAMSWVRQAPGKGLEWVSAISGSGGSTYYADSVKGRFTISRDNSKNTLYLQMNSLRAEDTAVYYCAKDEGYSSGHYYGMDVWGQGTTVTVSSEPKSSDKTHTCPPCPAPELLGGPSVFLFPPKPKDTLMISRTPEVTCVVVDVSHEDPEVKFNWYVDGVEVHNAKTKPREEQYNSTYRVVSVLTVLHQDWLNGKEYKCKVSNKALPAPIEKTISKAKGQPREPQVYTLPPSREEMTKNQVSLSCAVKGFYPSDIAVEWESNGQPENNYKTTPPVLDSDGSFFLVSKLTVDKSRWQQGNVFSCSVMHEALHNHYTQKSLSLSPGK
EC50 of cytotoxicity (hypoxia study, PBMC on MM1R/GFP cells) [2]: ~0.07 nM

B5: NG2BB9 (bispecific antibody, human IgG1, kappa)
heavy: EVQLVQSGAEVKKPGESLKISCKGSGYSFTSYWIGWVRQMPGKGLEWMGIIYPGDSYTRYSPSFQGQVTISADKSISTAYLQWSSLKASDTAMYYCARGGVSASGNYRALDYWGQGTLVTVSSASTKGPSVFPLAPSSKSTSGGTAALGCLVKDYFPEPVTVSWNSGALTSGVHTFPAVLQSSGLYSLSSVVTVPSSSLGTQTYICNVNHKPSNTKVDKKVEPKSCDKTHTCPPCPAPELLGGPSVFLFPPKPKDTLMISRTPEVTCVVVDVSHEDPEVKFNWYVDGVEVHNAKTKPREEQYNSTYRVVSVLTVLHQDWLNGKEYKCKVSNKALPAPIEKTISKAKGQPREPQVYVYPPSREEMTKNQVSLTCLVKGFYPSDIAVEWESNGQPENNYKTTPPVLDSDGSFALVSKLTVDKSRWQQGNVFSCSVMHEALHNHYTQKSLSLSPGK
light: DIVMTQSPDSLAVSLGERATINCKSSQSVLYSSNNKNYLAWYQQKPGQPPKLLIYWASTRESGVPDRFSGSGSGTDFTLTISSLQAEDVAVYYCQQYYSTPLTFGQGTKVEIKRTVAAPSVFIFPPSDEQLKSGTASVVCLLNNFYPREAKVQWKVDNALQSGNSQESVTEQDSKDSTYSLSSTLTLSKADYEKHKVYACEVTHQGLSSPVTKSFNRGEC
chain: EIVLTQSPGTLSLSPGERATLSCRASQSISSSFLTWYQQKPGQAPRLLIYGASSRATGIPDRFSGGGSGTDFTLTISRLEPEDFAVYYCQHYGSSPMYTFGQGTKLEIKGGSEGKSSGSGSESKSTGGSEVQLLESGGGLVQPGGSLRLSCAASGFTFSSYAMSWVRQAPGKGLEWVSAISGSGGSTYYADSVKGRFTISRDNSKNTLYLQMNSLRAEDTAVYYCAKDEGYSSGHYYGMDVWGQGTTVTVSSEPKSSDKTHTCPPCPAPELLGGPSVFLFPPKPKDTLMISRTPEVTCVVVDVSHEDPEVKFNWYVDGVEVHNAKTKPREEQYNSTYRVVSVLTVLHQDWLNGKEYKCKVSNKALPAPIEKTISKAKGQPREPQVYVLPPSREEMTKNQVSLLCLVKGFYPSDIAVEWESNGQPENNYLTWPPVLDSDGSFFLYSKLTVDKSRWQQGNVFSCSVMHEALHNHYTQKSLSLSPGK
IC50 for BsAb cytotoxicity, H929/GFP target cells with PBMC effectors [1]: 0.00722 nM

B6: NG2GB24 (bispecific antibody, human IgG1, kappa)
heavy: B5 heavy
light: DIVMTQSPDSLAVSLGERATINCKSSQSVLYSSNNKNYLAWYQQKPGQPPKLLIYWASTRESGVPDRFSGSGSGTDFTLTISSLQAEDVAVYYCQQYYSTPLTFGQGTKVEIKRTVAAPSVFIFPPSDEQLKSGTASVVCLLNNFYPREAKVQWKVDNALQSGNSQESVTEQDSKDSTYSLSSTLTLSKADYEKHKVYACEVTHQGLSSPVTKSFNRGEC
chain: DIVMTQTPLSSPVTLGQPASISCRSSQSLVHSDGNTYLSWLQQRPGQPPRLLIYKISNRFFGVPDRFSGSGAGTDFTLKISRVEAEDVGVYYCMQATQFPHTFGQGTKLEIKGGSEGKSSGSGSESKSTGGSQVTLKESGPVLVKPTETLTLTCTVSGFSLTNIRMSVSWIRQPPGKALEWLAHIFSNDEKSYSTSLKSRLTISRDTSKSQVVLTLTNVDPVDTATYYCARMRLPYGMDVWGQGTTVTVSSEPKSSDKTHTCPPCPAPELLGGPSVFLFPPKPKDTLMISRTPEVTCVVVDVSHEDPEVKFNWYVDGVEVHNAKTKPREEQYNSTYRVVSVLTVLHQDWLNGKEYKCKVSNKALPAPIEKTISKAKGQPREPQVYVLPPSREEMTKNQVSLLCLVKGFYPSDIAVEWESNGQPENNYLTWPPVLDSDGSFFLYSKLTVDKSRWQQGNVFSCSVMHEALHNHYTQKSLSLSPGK
IC50 for BsAb cytotoxicity, H929/GFP target cells with PBMC effectors [3]: 0.0144 nM

B7: N46B105 (antibody, V domains shown)
VH: QLQLQESGPGPVRPSETLSLTCTVSGDSIRSSSYYWGWIRQPPGKGLDWIGSIYYTGSTYYNPSLMSRVTISVDTSKNQFSLKLSSVTAADTAVYYCASPGYSSGWSIDYWGQGTLVTVSS
VL: DIQLTQSPSFLSASVGDRVTITCRASQGISSYLAWYQQKPGKAPKLLIYVASTLQSGVPSRFSGSGSGTEFTLTISSLQPEDFATYYCQQLNSYPRMTFGGGTKVEIK
notes: also called VR000044289
Kd [4]: 3.5 nM

B8: NKGB83 (antibody, human IgG1, V domains shown)
VH: EVQLVQSGAEVKKPGESLKISCKGSGYSFTSYWIGWVRQMPGKGLEWMGIIYPGDSYTRYSPSFQGQVTISADKSISTAYLQWSSLKASDTAMYYCARGGVSASGNYRALDYWGQGTLVTVSS
VL: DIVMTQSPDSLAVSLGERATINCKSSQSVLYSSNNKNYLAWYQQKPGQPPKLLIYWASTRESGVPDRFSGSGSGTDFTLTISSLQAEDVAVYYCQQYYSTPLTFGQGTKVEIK
notes: phage display panel; v-regions cloned into silent human IgG1/kappa constant regions; also called NKGB83.002
Kd [5]: 8.2 nM
koff [5]: 0.000941 s⁻¹
kon [5]: 114000 M⁻¹ s⁻¹
Kd [6]: 27.4 nM
koff [6]: 0.00212 s⁻¹
kon [6]: 77600 M⁻¹ s⁻¹

B9: NG2GB19 (bispecific antibody, human IgG1, lambda)
heavy: not shown
light: SYVLTQPPSVSVAPGQTARITCGGNNIGSKSVHWYQQKAGQAPVLVVYDDSDRPSGIPERFSGSNSGNTATLTISRVEAGDEADYYCQVWDGRSDHVVFGGGTKLTVLGQPKAAPSVTLFPPSSEELQANKATLVCLISDFYPGAVTVAWKADSSPVKAGVETTTPSKQSNNKYAASSYLSLTPEQWKSHRSYSCQVTHEGSTVEKTVAPTECS
IC50 for BsAb cytotoxicity, H929/GFP target cells with PBMC effectors [3]: 0.0199 nM

B10: NG2BB10 (bispecific antibody, human IgG1, lambda)
heavy: EVQLLESGGGLVQPGGSLRLSCAASGFTFSIYAMTWVRQAPGKGLEWVSIISGSGDHTFYADSVKGRFTISRDNSRNTLYLQMDSLRAEDTAVYYCAKEGKWVQLSHFANWGQGTLVTVSSASTKGPSVFPLAPSSKSTSGGTAALGCLVKDYFPEPVTVSWNSGALTSGVHTFPAVLQSSGLYSLSSVVTVPSSSLGTQTYICNVNHKPSNTKVDKKVEPKSCDKTHTCPPCPAPELLGGPSVFLFPPKPKDTLMISRTPEVTCVVVDVSHEDPEVKFNWYVDGVEVHNAKTKPREEQYNSTYRVVSVLTVLHQDWLNGKEYKCKVSNKALPAPIEKTISKAKGQPREPQVYVYPPSREEMTKNQVSLTCLVKGFYPSDIAVEWESNGQPENNYKTTPPVLDSDGSFALVSKLTVDKSRWQQGNVFSCSVMHEALHNHYTQKSLSLSPGK
light: B9 light
chain: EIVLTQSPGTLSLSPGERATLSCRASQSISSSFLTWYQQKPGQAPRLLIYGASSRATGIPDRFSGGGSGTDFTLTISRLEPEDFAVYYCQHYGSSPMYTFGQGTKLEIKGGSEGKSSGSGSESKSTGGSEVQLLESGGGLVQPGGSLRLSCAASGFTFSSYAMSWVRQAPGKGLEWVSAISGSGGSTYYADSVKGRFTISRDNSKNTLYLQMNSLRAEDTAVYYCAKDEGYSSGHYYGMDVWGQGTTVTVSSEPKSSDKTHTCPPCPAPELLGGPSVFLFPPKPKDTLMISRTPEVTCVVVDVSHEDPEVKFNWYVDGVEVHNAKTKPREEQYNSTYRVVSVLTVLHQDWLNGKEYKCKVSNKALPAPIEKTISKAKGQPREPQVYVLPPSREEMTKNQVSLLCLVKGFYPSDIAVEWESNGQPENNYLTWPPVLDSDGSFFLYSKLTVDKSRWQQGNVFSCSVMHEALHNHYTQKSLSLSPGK
IC50 for BsAb cytotoxicity, H929/GFP target cells with PBMC effectors [1]: 0.0209 nM

B11: NG2GB23 (bispecific antibody, human IgG1, lambda)
heavy: B10 heavy
light: B9 light
chain: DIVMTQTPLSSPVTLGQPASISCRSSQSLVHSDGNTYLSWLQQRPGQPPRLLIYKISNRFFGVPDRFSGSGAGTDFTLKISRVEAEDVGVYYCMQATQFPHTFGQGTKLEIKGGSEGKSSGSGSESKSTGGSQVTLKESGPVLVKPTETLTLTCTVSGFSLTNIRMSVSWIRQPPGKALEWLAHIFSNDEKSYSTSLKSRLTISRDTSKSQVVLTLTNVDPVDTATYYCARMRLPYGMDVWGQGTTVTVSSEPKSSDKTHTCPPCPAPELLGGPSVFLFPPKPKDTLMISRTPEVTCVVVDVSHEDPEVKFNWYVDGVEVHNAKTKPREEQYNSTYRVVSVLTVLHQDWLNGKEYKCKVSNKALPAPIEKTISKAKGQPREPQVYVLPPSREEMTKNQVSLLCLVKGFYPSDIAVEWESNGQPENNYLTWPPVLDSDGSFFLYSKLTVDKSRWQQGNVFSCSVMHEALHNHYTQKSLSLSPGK
IC50 for BsAb cytotoxicity, H929/GFP target cells with PBMC effectors [3]: 0.00337 nM

B12: NKGB125 (antibody, human IgG1, V domains shown)
VH: EVQLLESGGGLVQPGGSLRLSCAASGFTFSIYAMTWVRQAPGKGLEWVSIISGSGDHTFYADSVKGRFTISRDNSRNTLYLQMDSLRAEDTAVYYCAKEGKWVQLSHFANWGQGTLVTVSS
VL: SYVLTQPPSVSVAPGQTARITCGGNNIGSKSVHWYQQKAGQAPVLVVYDDSDRPSGIPERFSGSNSGNTATLTISRVEAGDEADYYCQVWDGRSDHVVFGGGTKLTVL
notes: OmniRat hybridoma clone; v-regions cloned into human IgG1 sigma and lambda constant regions; also called NKGB125.002; NKGY1_045_F04
Kd [5]: 0.05 nM
koff [5]: 3.85e-05 s⁻¹
kon [5]: 751000 M⁻¹ s⁻¹
Kd [6]: 0.1 nM
koff [6]: 5.84e-05 s⁻¹
kon [6]: 571000 M⁻¹ s⁻¹
